Test results as given in paper PMC8916728.

Biological target: 1-32–captured Pentamer (HCMV Pentamer bound by 1-32 IgG) (human cytomegalovirus (strain Towne) | human) (UniProt P17176)
Experiment: BLI

B1: untagged NRP2 (receptor)
chain: RGQPDPPCGGRLNSKDAGYITSPGYPQDYPSHQNCEWIVYAPEPNQKIVLNFNPHFEIEKHDCKYDFIEIRDGDSESADLLGKHCGNIAPPTIISSGSMLYIKFTSDYARQGAGFSLRYEIFKTGSEDCSKNFTSPNGTIESPGFPEKYPHNLDCTFTILAKPKMEIILQFLIFDLEHDPLQVGEGDCKYDWLDIWDGIPHVGPLIGKYCGTKTPSELRSSTGILSLTFHTDMAVAKDGFSARYYLVHQEPLENFQCNVPLGMESGRIANEQISASSTYSDGRWTPQQSRLHGDDNGWTPNLDSNKEYLQVDLRFLTMLTAIATQGAISRETQNGYYVKSYKLEVSTNGEDWMVYRHGKNHKVFQANNDATEVVLNKLHAPLLTRFVRIRPQTWHSGIALRLELFGCRVTDAPCSNMLGMLSGLIADSQISASSTQEYLWSPSAARLVSSRSGWFPRIPQAQPGEEWLQVDLGTPKTVKGVIIQGARGGDSITAVEARAFVRKFKVSYSLNGKDWEYIQDPRTQQPKLFEGNMHYDTPDIRRFDPIPAQYVRVYPERWSPAGIGMRLEVLGCDWTDSKPTVETLGPTVKSEETTTPYPTEEEATECGENCSFEDDKDLQLPSGFNCNFDFLEEPCGWMYDHAKWLRTTWASSSSPNDRTFPDDRNFLRLQSDSQREGQYARLISPPVHLPRSPVCMEFQYQATGGRGVALQVVREASQESKLLWVIREDQGGEWKHGRIILPSYDMEYQIVFEGVIGKGRSGEIAIDDIRISTDVPLENCMEPISAFAGENFKVDIPEIHEREGYEDEIDDEYEVDWSNSSSATSGSGAPSTDKEKSWLYTLDPILITIIAMSSLGVLLGATCAGLLLYCTCSYSGLSSRSCTTLENYNFELYDGLKHKVKMNHQKCCSEA
For B1, the Kd was 133 nM.
